Drawing on article doi:10.1101/2022.07.13.499703, this text covers stoichiometry N for four substances.

What is called stoichiometry N is a count of units in the complex or per binding partner.

Holding throughout (experiment): crystal structure
The target in assay [1] is BKPyV VP1 A72V-E73Q-E82Q triple mutant (VQQ) pentamer (BK polyomavirus) (UniProt P03088).
The target of assay [2] is BKPyV VP1 E73A variant pentamer (BK polyomavirus) (UniProt P03088).
The target of assay [3] is BKPyV VP1 E73Q variant pentamer (BK polyomavirus) (UniProt P03088).
Assay [4] deals with BKPyV VP1 K69N-E82Q double mutant (N-Q) pentamer (BK polyomavirus) (UniProt P03088).

In the case of “BKPyV VP1 A72V-E73Q-E82Q triple mutant (VQQ) pentamer (from UniProt P03088 30-300) (domain or fragment)”, the stoichiometry N in assay [1] amounted to 5.

Substance “BKPyV VP1 E73A variant pentamer (from UniProt P03088 30-300) (domain or fragment)” had a stoichiometry N in assay [2] of 5.

In the case of “BKPyV VP1 E73Q variant pentamer (from UniProt P03088 30-300) (domain or fragment)”, the stoichiometry N in assay [3] stood at 5.

In assay [4], “BKPyV VP1 K69N-E82Q double mutant (N-Q) pentamer (from UniProt P03088 30-300) (domain or fragment)” gave a stoichiometry N of 5.
